Values of other authors as cited in article PMC6614495.

Biological target: Amyloid beta (Homo sapiens) (UniProt P05067)
Sequence (P05067 672-711): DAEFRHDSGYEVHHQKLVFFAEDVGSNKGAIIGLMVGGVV

Sequence of Clusterin (ApoJ) (P10909 23-227): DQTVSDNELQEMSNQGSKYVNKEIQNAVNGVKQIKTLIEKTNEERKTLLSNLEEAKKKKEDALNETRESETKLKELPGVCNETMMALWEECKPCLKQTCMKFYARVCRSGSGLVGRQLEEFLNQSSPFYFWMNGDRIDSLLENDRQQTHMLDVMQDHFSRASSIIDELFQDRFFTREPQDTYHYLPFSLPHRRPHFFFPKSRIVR
Sequence of Clusterin (ApoJ) (P10909 228-449): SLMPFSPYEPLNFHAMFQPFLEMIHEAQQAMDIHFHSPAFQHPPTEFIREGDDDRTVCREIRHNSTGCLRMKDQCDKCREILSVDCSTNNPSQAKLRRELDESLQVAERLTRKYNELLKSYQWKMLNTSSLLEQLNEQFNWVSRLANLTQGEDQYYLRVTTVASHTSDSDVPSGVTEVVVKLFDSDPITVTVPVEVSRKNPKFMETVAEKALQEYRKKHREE

In the case of Clusterin (ApoJ) (from UniProt P10909), the Kd is listed as 2 nM.
